Assay results taken from patent US20140221620A1 (PERSEUS PROTEOMICS, published 2014).

Legend:
Assay in all cases: Western blot, E. coli lysate, reducing gel
[1] = molecular target: T1, CDH3 protein Fragment 2 (positions 132 to 348 of SEQ ID NO: 38) (human, UniProt P22223 132-348)
T1 construct: Expressed in E. coli Rosetta 2; the lysate was run on a reducing gel and blotted; not shown: N-terminal fusion part supplied by the vector pCold TF (His tag, trigger factor, linker to the KpnI site)
Description: (§1) The above-described Escherichia coli lysate, in which each of the above-mentioned CDH3 protein fragments had been expressed, was charged to 5%-20% gradient gel (Bio-Rad) under reductive conditions, followed by performing electrophoresis. Thereafter, using a blotting device (Bio-Rad), the resultant was transferred on Immobilon P membrane (Millipore). The transfer membrane was lightly washed with TBS-T (0.05% Tween 20, TBS), and it was then shaken in […] BSA-containing TBS for 1 hour. […] The obtained mixture was shaken for 1 hour. Thereafter, the reaction product was washed with TBS-T, and a HRP-anti-mouse IgG antibody (GE Healthcare Biosciences) diluted with 10% Block Ace-containing TBS-T was added thereto, followed by shaking the obtained mixture for 1 hour. Subsequently, the reaction product was washed with TBS-T. Using ECL-Plus (GE Healthcare Biosciences), color development was detected with X-ray film RX-u (Fujifilm Corporation) in accordance with the instructions provided by the manufacturer.

[2] = molecular target: T2, CDH3 protein Fragment 4 (positions 349 to 550 of SEQ ID NO: 38) (human, UniProt P22223 349-550)
T2 construct: Expressed in E. coli Rosetta 2; the lysate was run on a reducing gel and blotted; not shown: N-terminal fusion part supplied by the vector pCold TF (His tag, trigger factor, linker to the KpnI site)
Description: as §1

[3] = molecular target: T3, CDH3 protein Fragment 5 (positions 462 to 654 of SEQ ID NO: 38) (human, UniProt P22223 462-654)
T3 construct: Expressed in E. coli Rosetta 2; the lysate was run on a reducing gel and blotted; not shown: N-terminal fusion part supplied by the vector pCold TF (His tag, trigger factor, linker to the KpnI site)
Description: as §1

[4] = molecular target: T4, CDH3 protein Fragment 3 (positions 237 to 461 of SEQ ID NO: 38) (human, UniProt P22223 237-461)
T4 construct: Expressed in E. coli Rosetta 2; the lysate was run on a reducing gel and blotted; not shown: N-terminal fusion part supplied by the vector pCold TF (His tag, trigger factor, linker to the KpnI site)
Description: as §1

Measured: binding result

T3 sequence (P22223 462-654 limits assumed): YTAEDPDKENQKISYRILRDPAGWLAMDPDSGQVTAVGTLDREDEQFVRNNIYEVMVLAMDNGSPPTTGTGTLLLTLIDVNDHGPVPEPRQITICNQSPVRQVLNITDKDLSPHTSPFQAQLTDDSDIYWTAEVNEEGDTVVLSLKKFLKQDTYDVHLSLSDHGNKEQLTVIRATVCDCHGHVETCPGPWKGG
T4 sequence (P22223 237-461 limits assumed): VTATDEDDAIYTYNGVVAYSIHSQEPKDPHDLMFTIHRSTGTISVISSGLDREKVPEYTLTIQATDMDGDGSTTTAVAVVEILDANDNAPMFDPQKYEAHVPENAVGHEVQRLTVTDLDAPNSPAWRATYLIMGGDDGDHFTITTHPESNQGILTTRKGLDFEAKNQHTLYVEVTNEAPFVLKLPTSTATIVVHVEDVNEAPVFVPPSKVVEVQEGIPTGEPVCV
T2 sequence (P22223 349-550 limits assumed): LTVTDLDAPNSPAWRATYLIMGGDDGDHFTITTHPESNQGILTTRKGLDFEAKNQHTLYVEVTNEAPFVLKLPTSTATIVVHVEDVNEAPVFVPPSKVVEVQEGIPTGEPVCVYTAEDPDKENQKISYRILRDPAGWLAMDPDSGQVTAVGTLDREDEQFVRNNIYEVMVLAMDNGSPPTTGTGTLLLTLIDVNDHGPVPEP
T1 sequence (P22223 132-348 limits assumed): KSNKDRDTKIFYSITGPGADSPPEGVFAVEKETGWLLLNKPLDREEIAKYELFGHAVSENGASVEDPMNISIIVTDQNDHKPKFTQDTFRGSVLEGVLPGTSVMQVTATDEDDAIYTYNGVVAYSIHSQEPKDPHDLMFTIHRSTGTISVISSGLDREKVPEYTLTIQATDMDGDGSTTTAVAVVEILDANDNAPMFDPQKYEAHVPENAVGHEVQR

B1: mouse antibody PPAT-057-17 (antibody, V domains shown)
VH: QVKLEESGPVLVAPSQSLSITCTVSGFSLTSYGVHWIRHPPGKGLEWLGVIWAGGNTIYNSALMSRLNISKDNSKSQVFLKMNSLQSDDSAMYYCAKPHYGDYAGFYALDHWGQGTSVTVSS
VL: DVQITQSPSYLAASPGETININCRASKRISKYLAWYQEKPGKTNRLLIYSGSTLQSGIPSRFSGSGSGTDFTLTISSLEPEDFAMYYCQQHNEYPWTFGGGTKLEIK
notes: Mouse monoclonal IgG from a hybridoma; kappa L chain primers were used
no binding: all assays above
